In article PMC7430637 one finds fold weaker affinity against the H3K9me3 peptide, fold reduction of binding against the H3K9me3 peptide and Kd data, which are given here for 14 substances.

Assay [1] concerns the target recombinant hUHRF1 (human) (UniProt Q96T88). Nature of the assay: MST; 50 nM 6× His-tagged protein labelled with RED-tris-NTA dye, peptide titrated; 20 mM HEPES–NaOH pH 7.9, 150 mM NaCl, 0.05% Tween-20; room temperature; also with 100-fold molar excess of 16:0 PI5P (Figure 3D).
Assay [2] addresses recombinant mUHRF1 V1 (mouse) (UniProt Q8VDF2). The description is as above.
For assay [3], the target named is H3(1-15)K9me3-FAM peptide (C-terminally fluorescein-labelled). Nature of the assay: fluorescence polarisation; FAM-labelled H3(1-15) peptide, recombinant protein titrated; RT; as described (ref. 28). On the technique in general: In fluorescence polarisation assays a small probe gives low polarisation when free and higher when bound to something large.
Assay [4] addresses H3(1-15)unmodified-FAM peptide (C-terminally fluorescein-labelled). The description is as above.
For assay [5], the target named is mUHRF1 V1 R-S* (R298A/N299A/T300A/G301A/K302A/S303A), full-length (mouse) (UniProt Q8VDF2). Nature of the assay: MST; 50 nM His-tag-labelled (RED-tris-NTA) UHRF1 protein, H3 peptide titrated; 20 mM HEPES-NaOH pH 7.9, 150 mM NaCl, 0.05% Tween-20; room temperature; Monolith NT.115.
Sequence of mUHRF1 V1 R-S* (R298A/N299A/T300A/G301A/K302A/S303A), full-length (mouse) (Q8VDF2 whole entry R298A/N299A/T300A/G301A/K302A/S303A): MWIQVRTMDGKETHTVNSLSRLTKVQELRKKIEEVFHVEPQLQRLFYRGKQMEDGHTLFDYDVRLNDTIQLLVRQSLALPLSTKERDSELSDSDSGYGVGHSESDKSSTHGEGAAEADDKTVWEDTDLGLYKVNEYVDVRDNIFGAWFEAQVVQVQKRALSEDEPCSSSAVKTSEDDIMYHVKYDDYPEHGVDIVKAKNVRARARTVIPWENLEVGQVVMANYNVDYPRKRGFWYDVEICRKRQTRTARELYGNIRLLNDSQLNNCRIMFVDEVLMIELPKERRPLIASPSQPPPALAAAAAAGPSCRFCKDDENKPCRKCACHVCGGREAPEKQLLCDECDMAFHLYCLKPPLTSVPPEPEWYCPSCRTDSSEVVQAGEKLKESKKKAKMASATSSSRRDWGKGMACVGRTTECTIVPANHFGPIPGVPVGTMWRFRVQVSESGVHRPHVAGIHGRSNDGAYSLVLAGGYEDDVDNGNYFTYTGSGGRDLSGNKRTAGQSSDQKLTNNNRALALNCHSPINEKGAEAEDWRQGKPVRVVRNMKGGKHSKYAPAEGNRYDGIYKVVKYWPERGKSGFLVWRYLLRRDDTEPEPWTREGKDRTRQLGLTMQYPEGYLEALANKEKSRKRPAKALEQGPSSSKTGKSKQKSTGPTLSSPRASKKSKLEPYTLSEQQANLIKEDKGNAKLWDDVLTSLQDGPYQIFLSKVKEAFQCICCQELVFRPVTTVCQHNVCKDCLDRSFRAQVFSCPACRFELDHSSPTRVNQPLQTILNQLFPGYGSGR
Assay [6] addresses murine UHRF1 splicing variant 1 (mUHRF1 V1), full-length, wild type (mouse) (UniProt Q8VDF2). Described as above.
The target in assay [7] is mUHRF1 V1 P-patch/R* (P293A/P294A/P295A/L297A/R298A), full-length (mouse) (UniProt Q8VDF2). The assay is described as above.
Sequence of mUHRF1 V1 P-patch/R* (P293A/P294A/P295A/L297A/R298A), full-length (mouse) (Q8VDF2 whole entry P293A/P294A/P295A/L297A/R298A): as the sequence (Q8VDF2 whole entry R298A/N299A/T300A/G301A/K302A/S303A) above, with P293A, P294A, P295A, L297A, A299N, A300T, A301G, A302K, A303S counted along it
The target of assay [8] is murine UHRF1 splicing variant 2 (mUHRF1 V2), full-length, wild type (mouse). Described as above.
In assay [9] the target is mUHRF1 V1 R298* (R298A), full-length (mouse) (UniProt Q8VDF2). Described as above.
Sequence of mUHRF1 V1 R298* (R298A), full-length (mouse) (Q8VDF2 whole entry R298A): as the sequence (Q8VDF2 whole entry R298A/N299A/T300A/G301A/K302A/S303A) above, with A299N, A300T, A301G, A302K, A303S counted along it
For assay [10], the target named is human UHRF1 (hUHRF1), full-length, wild type (human) (UniProt Q96T88). The assay is described as above.
Sequence of human UHRF1 (hUHRF1), full-length, wild type (human) (Q96T88 whole entry): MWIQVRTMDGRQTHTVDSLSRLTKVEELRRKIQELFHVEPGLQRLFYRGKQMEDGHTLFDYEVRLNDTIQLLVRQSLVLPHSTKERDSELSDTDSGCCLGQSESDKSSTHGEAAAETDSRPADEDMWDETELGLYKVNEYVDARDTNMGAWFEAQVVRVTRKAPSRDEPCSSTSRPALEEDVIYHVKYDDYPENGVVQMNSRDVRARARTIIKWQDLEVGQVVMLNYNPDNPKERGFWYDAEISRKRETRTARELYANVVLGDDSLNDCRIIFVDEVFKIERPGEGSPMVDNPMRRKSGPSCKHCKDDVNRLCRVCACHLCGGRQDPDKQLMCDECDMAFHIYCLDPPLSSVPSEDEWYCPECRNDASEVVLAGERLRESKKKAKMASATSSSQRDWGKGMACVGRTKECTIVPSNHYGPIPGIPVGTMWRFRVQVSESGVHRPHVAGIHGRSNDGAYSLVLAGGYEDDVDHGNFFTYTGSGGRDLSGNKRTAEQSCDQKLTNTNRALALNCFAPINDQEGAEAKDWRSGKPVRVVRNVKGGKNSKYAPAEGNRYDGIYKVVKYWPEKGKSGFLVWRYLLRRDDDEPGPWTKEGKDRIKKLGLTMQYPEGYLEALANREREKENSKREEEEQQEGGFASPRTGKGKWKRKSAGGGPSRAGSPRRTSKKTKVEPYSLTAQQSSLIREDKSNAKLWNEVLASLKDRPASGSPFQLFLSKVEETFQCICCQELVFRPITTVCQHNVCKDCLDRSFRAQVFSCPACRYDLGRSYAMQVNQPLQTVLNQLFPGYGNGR
In assay [11] the target is FAM-H3(1-15)K9me3 peptide (N-terminally fluorescein-labelled). Nature of the assay: fluorescence polarisation; FAM-labelled H3(1-15) peptide, recombinant protein titrated; RT; as described (ref. 28).
For assay [12], the target named is H3(1–15)unmodified-FAM peptide. In words: fluorescence polarisation; FAM-labelled H3(1–15) peptide, recombinant protein titrated; room temperature; as described in ref. 28.
Assay [13] deals with FAM-H3(1–15)K9me3 peptide. The assay is described as above.
Assay [14] addresses H3(1–15)K9me3-FAM peptide. Described as above.

Sequence of murine UHRF1 splicing variant 1 (mUHRF1 V1), full-length, wild type (mouse) (Q8VDF2 whole entry, stated change not applied): as the sequence (Q8VDF2 whole entry R298A/N299A/T300A/G301A/K302A/S303A) above, with A298R, A299N, A300T, A301G, A302K, A303S counted along it
Sequence of recombinant hUHRF1 (human) (Q96T88 whole entry): as the sequence (Q96T88 whole entry) above
Sequence of recombinant mUHRF1 V1 (mouse) (Q8VDF2 whole entry): as the sequence (Q8VDF2 whole entry R298A/N299A/T300A/G301A/K302A/S303A) above, with A298R, A299N, A300T, A301G, A302K, A303S counted along it

Consider H3R2me2sK9me3 peptide (titrated in MST), for which the fold weaker affinity against the H3K9me3 peptide in assay [1] stood at 10 fold. Also, in [2], the fold reduction of binding against the H3K9me3 peptide came out at 20 fold.

As for “hTTD-PHD module of human UHRF1, wild type (from UniProt Q96T88 1-793) (domain or fragment)”, the Kd (usually a measure of binding affinity in units of concentration) was determined as 2.6 µM in assay [3] and 2.4 µM in assay [4].

Turning to “histone H3 N-terminal tail peptide, K9 trimethylated (MST)”, the dissociation constant Kd in [5] was determined as 6.2 µM; in [6] it was 1.4 µM; in [7], 6.3 µM; in assay [8], 4.5 µM; in [9], 6.7 µM; in assay [10], 1.5 µM.

For “histone H3 N-terminal tail peptide, R2 symmetrically dimethylated and K9 trimethylated (MST)”, the equilibrium dissociation constant (Kd) amounted to 28 µM in [6], 14 µM in assay [8] and 16 µM in assay [10].

Take “histone H3 N-terminal tail peptide, unmodified (MST)”: the Kd in assay [5] turned out to be 5.1 µM; in [6], 5.3 µM; in [7], 4.1 µM; in assay [8], 5.8 µM; in assay [9], 4.6 µM; in assay [10], 2.5 µM.

Consider “human UHRF1 (hUHRF1), full-length, wild type (from UniProt Q96T88-1 1-793) (natural protein)”, for which the Kd in assay [3] amounted to 7.7 µM; in [4], 15 µM.

As to “isolated tandem tudor domain of human UHRF1 (hTTD) (from UniProt Q96T88 1-793) (domain or fragment)”, the equilibrium dissociation constant (Kd) in [11] is 6.3 µM; in assay [3], 4.9 µM.

On to “isolated tandem tudor domain of murine UHRF1 (mTTD) (from UniProt Q8VDF2 1-782) (domain or fragment)”, for which the figures for the dissociation constant Kd in assay [11] and in assay [3] were 3.4 µM and 2.7 µM, respectively.

Consider mTTD-PHD V1 (domain or fragment), for which the Kd in assay [12] was 14.3 µM; in assay [13], above 300 µM; in assay [14], 4.9 µM.

For the substance “mTTD-PHD V1 TTD* (Y184A/Y187A, aromatic cage mutant) (from UniProt Q8VDF2-1 122-380) (domain or fragment)”, the results for the equilibrium dissociation constant (Kd) in [3] and in [4] were 21.4 µM and 19.5 µM, respectively.

On to mTTD-PHD V2 (domain or fragment), for which the Kd in assay [13] worked out at 12.3 µM.

On to “mTTD-PHD V2 module (mUHRF1 V2 122-372) (domain or fragment)”, for which the dissociation constant (Kd) in assay [3] was determined as 14.4 µM; in [4], 10.5 µM.

With “murine UHRF1 splicing variant 1 (mUHRF1 V1), full-length, wild type (from UniProt Q8VDF2 1-782) (natural protein)”, the Kd in [3] was 6.4 µM; in assay [4] it was 12.7 µM.

As for “murine UHRF1 splicing variant 2 (mUHRF1 V2), full-length, wild type (natural protein)”, the values for the dissociation constant Kd in assay [11], in assay [3] and in assay [4] were above 50 µM, 19.8 µM and 14.8 µM, respectively.
